Measured values taken from doi:10.1101/2022.11.12.516293.
Where two headings read alike, the source gives them in different places.

Key:
Experiment in all cases: EMSA
PU.1 [1] = molecular target: T1, PU.1 (UniProt P17947 1-270)
PU.1 [2] = molecular target: T1, PU.1; remark: listed apart in the source
PU.1 [3] = molecular target: T1, PU.1; remark: listed apart in the source

B1: rs1412445-T (dsDNA)
DNA 1: GGTCATTAGGAGGATGTTGGTGCTATTAATAATAGAG
DNA 2: CTCTATTATTAATAGCACCAACATCCTCCTAATGACC
Does B1 bind (PU.1 [1])?
Result: no binding

B2: rs1412444-T (dsDNA)
DNA 1: CTATTTGCCTTTAAACACTGGAAATAACACCAGTGGC
DNA 2: GCCACTGGTGTTATTTCCAGTGTTTAAAGGCAAATAG
Does B2 bind (PU.1 [2])?
Result: binds

B3: rs1320496-T (dsDNA)
DNA 1: CAGGAGGGGAAGTGGGATGCATGAGAAGAGGACGCGTTTC
DNA 2: GAAACGCGTCCTCTTCTCATGCATCCCACTTCCCCTCCTG
Does B3 bind (PU.1 [3])?
Result: binds
